Experimental data reported in US6261760A, “Regulation of the cell cycle by sterols” (priority 1999, dated 2001).

System: LDL FC uptake by fibroblast monolayers
Experiment: Effects of metabolic inhibitors on uptake of 3H-cholesterol from LDL (Example 1)
Details: cells pretreated with proteinase K; 4 experiments

B1: proteinase K: proteinase K pretreatment of cells (protein, UniProt P06873 106-384, looked up)
Proteinase K: AAQTNAPWGLARISSTSPGTSTYYYDESAGQGSCVYVIDTGIEASHPEFEGRAQMVKTYYYSSRDGNGHGTHCAGTVGSRTYGVAKKTQLFGVKVLDDNGSGQYSTIIAGMDFVASDKNNRNCPKGVVASLSLGGGYSSSVNSAAARLQSSGVMVAVAAGNNNADARNYSPASEPSVCTVGASDRYDRRSSFSNYGSVLDIFGPGTSILSTWIGGSTRSISGTSMATPHVAGLAAYLMTLGKTTAASACRYIADTANKGDLSNIPFGTVNLLAYNNYQA
inhibition of uptake of 3H-FC LDL label: 7±6%
